Assay results published in US10280205B2, “Method for treating cancer with an activated T lymphocyte that selectively recognizes a cancer cell consisting of specific peptide” (immatics biotechnologies GmbH, priority 2015, dated 2019).

Target: HLA-A*02:01 (Homo sapiens, UniProt P04439, D140Y/D185E/D98H/E176V/E277Q/G131W/G231S/I119V/I121R/I166T/I218V/L300P/L318F/N151K/N90K/P208A/P217A/Q86G/Q94H/R138H/R169H/T345S)
Experiment: MHC binding assay: UV-ligand exchange with beta2m ELISA (exchange yield)
Details: binding to HLA-A*02:01, β2m ELISA
How it was run: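 Exchange yield reflects how much β2m remains bound, measured by ELISA: streptavidin capture of 100-fold diluted monomers, HRP anti-β2m at 37° C. for 1 h, TMB read at 450 nm. Monomers come from UV cleavage of a conditional HLA-A*02:01 ligand in the presence of the candidate peptide.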

| Substance | Peptide exchange (MHC class I binding score, peptide exchange yield) |
| --- | --- |
| 576 (ILLNNSGQIKL; listed as Homo sapiens) [compound 576] | “++++” (≥75% = ++++) |
| 610 (LLAPTPYIIGV; listed as Homo sapiens) [compound 610] | “+++” (≥50 = +++) |
| 193 (QLLDADGFLNV; listed as Homo sapiens) [compound 193] | “+++” (≥50 = +++) |
| 10 (FLATFPLAAV; listed as Homo sapiens) [compound 10] | “++++” (≥75% = ++++) |
| 561 (YLQLTQSEL; listed as Homo sapiens) [compound 561] | “+++” (≥50 = +++) |
| 349 (SLTEYLQNV; listed as Homo sapiens) [compound 349] | “++++” (≥75% = ++++) |
| 555 (YVLEGLKSV; listed as Homo sapiens) [compound 555] | “+++” (≥50 = +++) |
| 98 (LIIDQADIYL; listed as Homo sapiens) [compound 98] | “+++” (≥50 = +++) |
| 393 (GLLDTQTSQVLTA; listed as Homo sapiens) [compound 393] | “++” (≥20% = ++) |
| 356 (KLLGKLPEL; listed as Homo sapiens) [compound 356] | “+++” (≥50 = +++) |
| 412 (YLDDLNEGVYI; listed as Homo sapiens) [compound 412] | “++” (≥20% = ++) |
| 190 (FLSSLTETI; listed as Homo sapiens) [compound 190] | “+++” (≥50 = +++) |
| 432 (TLIEESAKV; listed as Homo sapiens) [compound 432] | “++” (≥20% = ++) |
| 434 (KVSNSGITRV; listed as Homo sapiens) [compound 434] | “++” (≥20% = ++) |
| 367 (SLQNHNHQL; listed as Homo sapiens) [compound 367] | “+++” (≥50 = +++) |
| 311 (RLYTGMHTV; listed as Homo sapiens) [compound 311] | “+++” (≥50 = +++) |
| 86 (NLIGKIENV; listed as Homo sapiens) [compound 86] | “+++” (≥50 = +++) |
| 115 (AIAGAGILYGV; listed as Homo sapiens) [compound 115] | “++” (≥20% = ++) |
| 181 (LLWAGTAFQV; listed as Homo sapiens) [compound 181] | “+++” (≥50 = +++) |
| 322 (TLMTSLPAL; listed as Homo sapiens) [compound 322] | “+++” (≥50 = +++) |
| 580 (LLMENAERV; listed as Homo sapiens) [compound 580] | “++” (≥20% = ++) |
| 222 (NLIENVQRL; listed as Homo sapiens) [compound 222] | “++” (≥20% = ++) |
| 282 (LLADVVPTT; listed as Homo sapiens) [compound 282] | “+++” (≥50 = +++) |
| 131 (FVPPVTVFPSL; listed as Homo sapiens) [compound 131] | “++” (≥20% = ++) |
| 231 (FLSPQQPPLLL; listed as Homo sapiens) [compound 231] | “++” (≥20% = ++) |
| 73 (NIFDLQIYV; listed as Homo sapiens) [compound 73] | “+++” (≥50 = +++) |
| 485 (NVPDSFNEV; listed as Homo sapiens) [compound 485] | “+++” (≥50 = +++) |

More lines, now with the values ahead:

| Peptide exchange (MHC class I binding score, peptide exchange yield) | Substance |
| --- | --- |
| “+++” (≥50 = +++) | 49 (YLPAVFEEV; listed as Homo sapiens) [compound 49] |
| “++” (≥20% = ++) | 33 (VLLSLLEKV; listed as Homo sapiens) [compound 33] |
| “+++” (≥50 = +++) | 509 (FLFDTKPLIV; listed as Homo sapiens) [compound 509] |
| “+++” (≥50 = +++) | 306 (ALVNVQIPL; listed as Homo sapiens) [compound 306] |
| “+++” (≥50 = +++) | 359 (YLLPESVDL; listed as Homo sapiens) [compound 359] |
| “++” (≥20% = ++) | 374 (FLLQQHLISA; listed as Homo sapiens) [compound 374] |
| “++” (≥20% = ++) | 510 (KLYSVVSQL; listed as Homo sapiens) [compound 510] |
| “+++” (≥50 = +++) | 346 (LLDSKVPSV; listed as Homo sapiens) [compound 346] |
| “+++” (≥50 = +++) | 312 (IISDLTIAL; listed as Homo sapiens) [compound 312] |
| “+++” (≥50 = +++) | 457 (SLLPGNLVEKV; listed as Homo sapiens) [compound 457] |
| “+++” (≥50 = +++) | 276 (ALFTFSPLTV; listed as Homo sapiens) [compound 276] |
| “++++” (≥75% = ++++) | 159 (GLVGNPLPSV; listed as Homo sapiens) [compound 159] |
| “+++” (≥50 = +++) | 297 (VLADIELAQA; listed as Homo sapiens) [compound 297] |
| “+++” (≥50 = +++) | 456 (LLIGHLERV; listed as Homo sapiens) [compound 456] |
| “+++” (≥50 = +++) | 170 (RLQETLSAA; listed as Homo sapiens) [compound 170] |
| “+++” (≥50 = +++) | 503 (SLNHFTHSV; listed as Homo sapiens) [compound 503] |
| “++” (≥20% = ++) | 522 (TLWYRSPEV; listed as Homo sapiens) [compound 522] |
| “+++” (≥50 = +++) | 542 (RVWDISTVSSV; listed as Homo sapiens) [compound 542] |
| “+++” (≥50 = +++) | 605 (KLYEAVPQL; listed as Homo sapiens) [compound 605] |
| “++” (≥20% = ++) | 197 (ALGPEGGRV; listed as Homo sapiens) [compound 197] |
| “+++” (≥50 = +++) | 365 (YVIDQGETDVYV; listed as Homo sapiens) [compound 365] |
| “+++” (≥50 = +++) | 70 (GLLDYPVGV; listed as Homo sapiens) [compound 70] |
| “+++” (≥50 = +++) | 302 (ALLQEGEVYSA; listed as Homo sapiens) [compound 302] |
